Measured values reported in patent US20170369592A1, “NOVEL ANTI-FIBROBLAST ACTIVATION PROTEIN (FAP) ANTIBODIES AND USES DERIVED THEREOF” (Mabimmune Diagnostics AG, priority 2015, published 2017).
Blank lines part the entries; values can stand above or below the molecule they belong to.

Tests used:
[1] = target: T1, FAP (Homo sapiens, UniProt Q12884); details: cited from earlier work
T1 sequence (Q12884 1-760): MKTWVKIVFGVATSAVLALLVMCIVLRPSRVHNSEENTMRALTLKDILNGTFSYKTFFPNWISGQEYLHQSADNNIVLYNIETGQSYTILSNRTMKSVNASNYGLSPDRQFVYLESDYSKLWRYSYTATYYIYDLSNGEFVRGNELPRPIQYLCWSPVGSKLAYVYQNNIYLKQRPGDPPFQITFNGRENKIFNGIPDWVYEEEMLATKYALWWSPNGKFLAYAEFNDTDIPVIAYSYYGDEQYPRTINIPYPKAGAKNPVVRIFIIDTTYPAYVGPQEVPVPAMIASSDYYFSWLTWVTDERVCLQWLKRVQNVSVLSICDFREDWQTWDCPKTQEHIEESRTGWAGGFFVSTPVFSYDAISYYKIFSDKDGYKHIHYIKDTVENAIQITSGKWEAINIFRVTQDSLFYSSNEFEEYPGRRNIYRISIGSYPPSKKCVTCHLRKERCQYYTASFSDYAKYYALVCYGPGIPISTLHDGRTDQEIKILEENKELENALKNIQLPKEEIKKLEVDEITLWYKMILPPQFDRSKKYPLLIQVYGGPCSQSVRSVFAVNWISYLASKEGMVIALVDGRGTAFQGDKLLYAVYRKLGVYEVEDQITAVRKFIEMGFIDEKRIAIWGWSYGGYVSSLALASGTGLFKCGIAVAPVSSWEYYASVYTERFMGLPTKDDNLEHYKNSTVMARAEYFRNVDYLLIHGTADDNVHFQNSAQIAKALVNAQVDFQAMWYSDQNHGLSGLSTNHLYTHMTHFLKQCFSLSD

[2] = test system: metastatic colorectal cancer; details: unconjugated antibody, early phase II trial; cited from earlier work
[3] = human, in vivo; cited from earlier work
[4] = target: T2, captured FAP (sFAP) (Homo sapiens, UniProt Q12884); assay: Capture ELISA, FAP captured via his-tag with coated anti-His antibody; format: binding; details: non-linear regression
T2 sequence (Q12884 1-760): T1 sequence (Q12884 1-760)
Experimental: (§1) ELISA assays were performed with varying antibody concentrations to validate the binding of the exemplary antibodies of the present invention to FAP and to be able to determine their half maximal effective concentration (EC50). For the exemplary recombinant human NI-206.82C2, NI-206.59B4, NI-206.22F7, NI-206.27E8, NI-206.12G4 and NI-206.17A6 antibodies, 96-well microplates (Costar, Corning, USA) were coated with FAP, with a mixture of the 3 peptides or with BSA (Sigma-Aldrich, Buchs, Switzerland) diluted to a concentration of 5 μg/ml in carbonate ELISA coating buffer (15 mM Na2CO3, 35 mM NaHCO3, pH 9.4) for the direct ELISA. For the capture ELISA, the microplates were coated with mouse anti-His monoclonal antibody (Clontech) diluted to a concentration of 3 μg/ml in PBS, the plates were then blocked, FAP or BSA were diluted to a concentration of 2 μg/ml in PBS and added to the plates to be captured. The binding efficiency of the antibodies was then tested. The exemplary NI-206.82C2 antibody specifically and strongly binds to the captured FAP and less efficiently to the directly coated FAP. The exemplary NI-206.59B4 antibody specifically, strongly and similarly binds to the captured FAP and to the directly coated FAP.
(§2) The EC50 values were estimated by a non-linear regression using GraphPad Prism (San Diego, USA) software. […] The binding of NI-206.12G4 towards sFAP was not tested.

[5] = target: T3, directly coated FAP (FAP) (Homo sapiens, UniProt Q12884); assay: Direct ELISA, FAP directly coated; format: binding; details: non-linear regression
T3 sequence (Q12884 1-760): T1 sequence (Q12884 1-760)
Experimental: as §1, §2

Molecule: Sibrotuzumab: a humanized version of the F19 antibody that specifically binds to human FAP
- inhibition of FAP [1]: not inhibitory
- efficacy in inhibiting tumor progression [2]: lack of efficacy
- patients with a change in pharmacokinetics and reduced tumor uptake [3]: 4 of 26

- EC50, binding to captured FAP (sFAP) [4]: did not show any binding
- EC50, binding to directly coated FAP (FAP) [5]: did not show any binding
B1: NI-206.22F7: recombinant human-derived monoclonal anti-FAP antibody, variable regions in FIG. 1 (antibody, V domains shown)
VH: EVQLVETGGGVVQPGRSLRLSCAASGFSFSTHGMYWVRQPPGKGLEWVAVISYDGSDKKYADSVKGRFTISRDNSKNTVYLEMSSVRAEDTALYYCFCRRDAFDLWGQGTMVTVSS
VL: SYVLTQPPSVSVSPGQTARITCSGDALPKKYAYWYQQKSGQAPVLVIYEDTKRPSGIPERFSGSSSGTMATLTISGAQVEDEADYYCYSTDSSGNYWVFGGGTEVTVL
